Measured values reported in US20250170257A1 (NANOLATTIX BIOTECHNOLOGY, published 2025).
One block for each binder: values may come before it.

Legend:
[1] = biological target: T1, tissue factor (UniProt P13726 33-251, limits assumed); assay: SPR (Biacore S200), same method, tissue factor as analyte 12.5-200 nM; parent antibody before modification; tissue factor 12.5-200 nM
T1 construct: also called TF; antigen tissue factor
Description: (§1) The humanized anti-tissue factor antibody was coupled to the 2nd channel on the surface of the CM5 chip via amino groups, the 1st and the 3rd channels were used as reference channels, the tissue factor flew through the chip surface as the analyte (mobile phase). […] The Kinetics/Affinity program of Bicore S200 was run to measure the affinity.

[2] = biological target: T1, tissue factor; assay: SPR (Biacore S200), antibody amine-coupled on CM5 chip, tissue factor as analyte 1.125-18 nM; MAb01
Description: as §1

[3] = biological target: T1, tissue factor; assay: SPR (Biacore S200), antibody amine-coupled on CM5 chip, tissue factor as analyte 1.125-18 nM; MAb02
Description: as §1

T1 sequence (P13726 33-251 limits assumed): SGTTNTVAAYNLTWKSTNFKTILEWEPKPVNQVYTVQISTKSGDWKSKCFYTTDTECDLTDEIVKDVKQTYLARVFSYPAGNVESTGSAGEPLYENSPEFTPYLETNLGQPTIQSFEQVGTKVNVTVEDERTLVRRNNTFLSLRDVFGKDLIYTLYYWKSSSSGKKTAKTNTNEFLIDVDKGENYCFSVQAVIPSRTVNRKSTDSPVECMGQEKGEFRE

Kd [1]: 33.7 nM
B1: humanized antibody against tissue factor before modification (CN 107446047A) (antibody, V domains shown)
VH: EVQLQQSGPELVKPGASVKVSCKASGYTFTHFNVYWVRQSPGKGLEWIGYIDPDNGITFYDENFMGKATLTVDKSSSTAYMQLNSLTSEDSAVYYCARDVTTAVDFWGQGTTLTVSS
VL: DIQMTQSPSSLSASVGDRVTITCLATQTLDTWLAWYQQKPGKAPQLLIYAATYLADGVPSRFSGSGSGTDFTFTISSLQPEDFATYYCQLVYSSPSTFGQGTKLEIK
notes: also called humanized antibody before modified

Kd [2]: 0.357 nM
B2: humanized anti-tissue factor antibody MAb01 (antibody, V domains shown)
VH: QIQLVQSGPELVKPGASVQVSCKTSGYSFTDYNVYWVRQSPAKGIEWIGYIDPYNGLTIYEQNFRGKGTLSLDHSTSTAYMELNSLRYEDTAVYFCARDVTTALDFWGQGTSVTVSS
VL: DIQMTQSPASISASIGERVTITCLASQTIDTWLAWFLQKPGRSPNLLIYAATNLADGVPYRFSASGSGNDFSLTISSLNPEDVATYYCQQVYSSPFTFGQGNKLEIRR

Kd [3]: 1 nM
B3: humanized anti-tissue factor antibody MAb02 (antibody, V domains shown)
VH: QIQLVQSGPEVVKPGASVRVSCKGSGYSFTDYNIYWVRQSPAKGLEWIGYIDPYNGLTIYDQNFRAKATLSVDHSTSNAYMEINSLRYEDTAVYFCARDVTSALEFWGQGTSVTVSS
VL: DIQMTQSPASISASVGERVTITCLGSQTIDTYLAWYLQKPGRSPQLLIYAATQLADGVPSRFSASGSGTDFSLTISSLQPEDVATYYCQNVYSSPFTFGQGNKLEIKR
notes: Full heavy chain (449 aa) and light chain (214 aa), expressed in CHO-dhfr- cells
